The labels stand for the following.
B1: anti-PD-L1/anti-CD47 heterodimeric antibody BH3016 (bispecific antibody)
heavy 1: EVQLVQSGAEVKKPGSSVKVSCKASGFNIEDTYIHWVRQAPGQGLEWMGRIDPANANTKYDPKFQGRVTITADTSTNTAYMELSSLRSEDTAVYYCGRGLGAWFAYWGQGTLVTVSS
light 1: DIQMTQSPSSLSASVGDRVTITCKASQDVHTAVAWIQQKPGKSPKLLIYSASNRYTGVPSRFSGSGSGTDFTFTISSLQPEDIATYYCQQHYITPLTFGQGTKLEIKRTVAAPSVFIFPPSDEQLKSGTASVVCLLNNFYPREAKVQWKVDNALQSGNSQESVTEQDSKDSTYSLSSTLTLSKADYEKHKVYACEVTHQGLSSPVTKSFNRGEC
heavy 2: QVQLVQSGAEVKKPGSSVKVSCKASGFNIEDIYMHWVRQAPGQGLEWMGRIDPANDNTKYGPKLQGRVTITADESTSTAYMELSSLRSEDTAVYYCVRRIPTDIMDYWGQGTTVTVSSASTKGPSVFPLAPSSKSTSGGTAALGCLVKDYFPEPVTVSWNSGALTSGVHTFPAVLQSSGLYSLSSVVTVPSSSLGTQTYICNVNHKPSNTKVDKKVEPKSCDKTHTCPPCPAPELLGGPSVFLFPPKPKDTLMISRTPEVTCVVVDVSHEDPEVKFNWYVDGVEVHNAKTKPREEQYASTYRVVSVLTVLHQDWLNGKEYKCKVSNKALPAPIEKTISKAKGQPREPQVYTEPPSRDELTKNQVSLTCLVKGFYPSDIAVEWESNGQPENNYKTTPPVLDSDGSFFLLSVLTVDKSRWQQGNVFSCSVMHEALHNHYTQKSLSLSPGK
light 2: DIQMTQSPSSLSASVGDRVTITCKASQNVRTSIAWYQQKPGKAPKTLIYLASNRHTGVPSRFSGSGSGTEFTLTISNLQPEDFATYYCLQHWNYPFTFGQGTKLEIKRTVAAPSVFIFPPSDEQLKSGTASVVCLLNNFYPREAKVQWKVDNALQSGNSQESVTEQDSKDSTYSLSSTLTLSKADYEKHKVYACEVTHQGLSSPVTKSFNRGEC
B2: anti-PD-L1/anti-CD47 heterodimeric antibody BH3012h (bispecific antibody)
heavy 1: B1 heavy 1
light 1: B1 light 1
heavy 2: B1 heavy 2 with E74T, S77N
light 2: B1 light 2
B3: anti-PD-L1/anti-CD47 heterodimeric antibody BH3014 (bispecific antibody)
heavy 1: B1 heavy 1
light 1: B1 light 1
heavy 2: B1 heavy 2 with S77N, V97A
light 2: B1 light 2 with T46R
B4: anti-PD-L1/anti-CD47 heterodimeric antibody BH3015 (bispecific antibody)
heavy 1: B1 heavy 1
light 1: B1 light 1
heavy 2: B1 heavy 2 with E74T
light 2: B1 light 2 with T46R
B5: CD47 monoclonal antibody (heavy and light chain variable region sequences of the humanized sequences z11 of the antibody CD47-18-5 and the constant region … (antibody, V domains shown)
VH: QVQLVQSGAEVKKPGSSVKVSCKASGFNIEDIYMHWVRQAPGQGLEWMGRIDPANDNTKYGPKLQGRVTITADTSTNTAYMELSSLRSEDTAVYYCVRRIPTDIMDYWGQGTTVTVSS
VL: DIQMTQSPSSLSASVGDRVTITCKASQNVRTSIAWYQQKPGKAPKTLIYLASNRHTGVPSRFSGSGSGTEFTLTISNLQPEDFATYYCLQHWNYPFTFGQGTKLEIK

Positions count from the first letter of the chain named.

T1 sequence (Q9NZQ7 19-238): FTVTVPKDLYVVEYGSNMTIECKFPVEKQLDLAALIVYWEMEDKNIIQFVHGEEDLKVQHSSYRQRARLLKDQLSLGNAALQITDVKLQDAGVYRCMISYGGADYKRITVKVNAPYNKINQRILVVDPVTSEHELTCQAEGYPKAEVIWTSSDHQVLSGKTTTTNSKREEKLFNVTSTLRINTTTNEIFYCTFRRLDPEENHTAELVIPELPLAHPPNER
Sequence of human CD47 (ACROBiosystems, catalog number CD7-H5227) (Q08722 19-139): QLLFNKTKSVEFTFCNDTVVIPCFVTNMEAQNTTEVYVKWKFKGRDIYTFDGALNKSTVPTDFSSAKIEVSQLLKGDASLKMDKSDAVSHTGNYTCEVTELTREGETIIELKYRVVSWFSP
Sequence of recombinant human CD47-Fc (ACROBiosystems, catalog number CD7-H52A5) (Q08722 19-139): as above

One test addresses T1, human PD-L1-Fc (ACROBiosystems, catalog number PD1-H5258) (human, UniProt Q9NZQ7 19-238). As to the kind of experiment: competition ELISA; blocking PD-L1/PD-1. For orientation: In an ELISA, binding on a coated surface is turned into a signal by an enzyme label.
Turning to B1, the EC50 (in general, the concentration giving half of the maximal effect) was found to be 1.5 nM.

On to B2, for which the EC50 came to 1.54 nM.

Take B3: the response was half-maximal at 1.63 nM (EC50).

The molecule B4 showed an EC50 of 1.67 nM.

The target in another test is T1, human PD-L1-Fc (ACROBiosystems, catalog …). As to the kind of experiment: competition ELISA; blocking PD-L1/CD80.
Consider B1, for which a half-maximal response (EC50) required 1.29 nM.

For the molecule B2, the EC50 came out at 1.78 nM.

Consider B3, for which the EC50 was determined as 1.5 nM.

Consider B4, for which it took 1.97 nM to reach a half-maximal effect (EC50).

The target in a further test is recombinant human PD-L1 (Sino Biological Inc., catalog number 10084-H08H) (human, UniProt Q9NZQ7 19-239). In words: ELISA.
Sequence of recombinant human PD-L1 (Sino Biological Inc., catalog number 10084-H08H) (Q9NZQ7 19-239): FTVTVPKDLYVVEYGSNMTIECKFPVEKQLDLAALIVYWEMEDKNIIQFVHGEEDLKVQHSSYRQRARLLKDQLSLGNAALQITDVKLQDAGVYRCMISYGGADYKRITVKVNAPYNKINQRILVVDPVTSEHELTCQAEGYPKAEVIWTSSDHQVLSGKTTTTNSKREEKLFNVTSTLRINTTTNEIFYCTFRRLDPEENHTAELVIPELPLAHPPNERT
For the molecule B1, the EC50 came out at 0.251 nM.

Consider B2, for which the EC50 stood at 0.261 nM.

In the case of B3, the EC50 worked out at 0.234 nM.

Regarding B4, the EC50 came to 0.262 nM.

Another test has as its target human CD47 (ACROBiosystems, catalog number CD7-H5227) (human, UniProt Q08722 19-139). In words: ELISA.
As for B1, the EC50 was determined as 0.491 nM.

B2 had an EC50 of 0.134 nM.

As to B3, a half-maximal response (EC50) required 68.4 nM.

As to B4, a half-maximal effect (EC50) was put at 2.49 nM.

B5 came in with an EC50 of 0.094 nM.

A further test concerns the target recombinant human CD47-Fc (ACROBiosystems, catalog number CD7-H52A5) (human, UniProt Q08722 19-139). In words: competition ELISA; blocking CD47/SIRPα.
B1: the concentration for a half-maximal effect (EC50) was found to be 6.12 nM.

In the case of B2, the EC50 amounted to 4.73 nM.

For B3, the EC50 is 802 nM.

For B4, the EC50 amounted to 12.8 nM.

With B5, the EC50 turned out to be 2.26 nM.

For the origin of these results see patent US20240052037A1 (published 2024).
